Here are results for five molecules from patent US20240409635A1.

Assay [1] addresses tyrosine-protein kinase Met (c-Met) on human tumor cells (human) (UniProt P08581). Briefly: cell-based or functional assay.
In assay [2] the target is CEA-BsAb bispecific control antibody (TA1-Fab anti-CD3 x CEA VHH). Briefly: BLI self-interaction, AHQ sensor.
The target in assay [3] is CEA-CAM6-BsAb bispecific control antibody (TA1-Fab anti-CD3 x CEA-CAM6 VHH). Nature of the assay: BLI self-interaction, AHQ sensor.
Assay [4] addresses EGFR-BsAb bispecific control antibody (TA1-Fab anti-CD3 x EGFR VHH). Briefly: BLI self-interaction, AHQ sensor.
Assay [5] addresses HER2-BsAb bispecific control antibody (TA1-Fab anti-CD3 x HER2 VHH). Nature of the assay: BLI self-interaction, AHQ sensor.

tyrosine-protein kinase Met (c-Met) on human tumor cells (human), sequence (P08581 25-1390): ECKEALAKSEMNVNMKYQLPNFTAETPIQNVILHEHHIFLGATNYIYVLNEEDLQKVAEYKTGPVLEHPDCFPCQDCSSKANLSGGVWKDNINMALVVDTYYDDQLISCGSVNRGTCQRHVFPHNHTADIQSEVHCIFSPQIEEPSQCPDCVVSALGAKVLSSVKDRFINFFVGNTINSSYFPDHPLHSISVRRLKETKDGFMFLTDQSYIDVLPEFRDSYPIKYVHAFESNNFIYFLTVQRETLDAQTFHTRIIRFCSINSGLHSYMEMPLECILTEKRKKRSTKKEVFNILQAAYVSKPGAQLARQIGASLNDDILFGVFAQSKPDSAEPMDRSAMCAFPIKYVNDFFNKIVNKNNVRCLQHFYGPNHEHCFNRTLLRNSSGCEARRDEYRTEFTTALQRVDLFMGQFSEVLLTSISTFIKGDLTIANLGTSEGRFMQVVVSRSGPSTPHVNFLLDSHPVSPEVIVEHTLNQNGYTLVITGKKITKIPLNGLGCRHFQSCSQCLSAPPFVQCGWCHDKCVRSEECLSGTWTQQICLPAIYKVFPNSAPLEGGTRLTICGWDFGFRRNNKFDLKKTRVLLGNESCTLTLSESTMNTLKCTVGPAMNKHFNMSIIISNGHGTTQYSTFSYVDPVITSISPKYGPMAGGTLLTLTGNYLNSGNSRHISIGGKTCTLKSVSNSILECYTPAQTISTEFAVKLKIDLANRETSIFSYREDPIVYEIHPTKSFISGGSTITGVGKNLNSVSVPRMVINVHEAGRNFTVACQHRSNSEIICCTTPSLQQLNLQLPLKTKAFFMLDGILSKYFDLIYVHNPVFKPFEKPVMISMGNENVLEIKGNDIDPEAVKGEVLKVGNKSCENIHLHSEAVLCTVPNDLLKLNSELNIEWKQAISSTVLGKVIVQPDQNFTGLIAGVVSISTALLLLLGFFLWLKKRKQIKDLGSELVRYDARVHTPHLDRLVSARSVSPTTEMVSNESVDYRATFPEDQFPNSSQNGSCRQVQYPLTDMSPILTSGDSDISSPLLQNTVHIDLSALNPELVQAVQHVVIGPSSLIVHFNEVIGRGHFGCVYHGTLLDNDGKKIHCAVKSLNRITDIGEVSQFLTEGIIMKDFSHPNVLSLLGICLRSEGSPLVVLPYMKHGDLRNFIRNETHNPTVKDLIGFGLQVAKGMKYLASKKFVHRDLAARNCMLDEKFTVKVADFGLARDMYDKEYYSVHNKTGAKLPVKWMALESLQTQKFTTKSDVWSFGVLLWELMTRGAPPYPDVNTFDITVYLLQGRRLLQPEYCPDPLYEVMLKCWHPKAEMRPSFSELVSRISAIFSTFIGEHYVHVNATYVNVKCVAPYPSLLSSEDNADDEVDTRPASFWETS

B1: c-Met-BsAb bispecific control antibody (anti-CD3 TA1 Fab and c-Met VHH) (bispecific antibody, not shown: a dimerising Fc or GST)
heavy: EVKLLESGGGLVQPKGSLKLSCAASGFTFNTYAMNWVRQAPGKGLEWVARIRSKYNNYATYYADSVKDRFTISRDDSQSILYLQMNNLKTEDTAMYYCVRHGNFGNSYVSWFAYWGQGTLVTVSSASTKGPSVFPLAPCSRSTSESTAALGCLVKDYFPEPVTVSWNSGALTSGVHTFPAVLQSSGLYSLSSVVTVPSSSLGTKTYTCNVDHKPSNTKVDKRV
chain: QVKLEESGGDLVQPGGSLRLSCVGSGSIFSYTAMGWYRQAPGKQRELVATIHSGGNINYADSVKGRFTISRDNTENTVYLQMNSLKPEDTAVYYCWSLLVGPETRYKDFNFWGRGTQVTVSS
light: QAVVTQESALTTSPGETVTLTCRSSTGAVTTSNYANWVQEKPDHLFTGLIGGTNKRAPGVPARFSGSLIGDKAALTITGAQTEDEAIYFCALWYSNLWVFGGGTKVEIKRTVAAPSVFIFPPSDEQLKSGTASVVCLLNNFYPREAKVQWKVDNALQSGNSQESVTEQDSKDSTYSLSSTLTLSKADYEKHKVYACEVTHQGLSSPVTKSFNRGEC
As to B1, in assay [1], the T cell mediated killing EC50, H-1975 (EGFR+c-Met+) is 0.223 pM; the T cell mediated killing EC50, HT-29 (EGFR+c-Met+) came to 0.518 pM; the T cell mediated killing EC50, OSRC2 (EGFR+++c-Met+) came out at 243 pM; the T cell mediated killing EC50, UT33A (EGFR+++c-Met+++) stood at 2.7 pM. In addition, the T cell mediated killing EC50, UT44 (EGFR+++c-Met++) in assay [1] amounted to 0.156 pM.

B2: CEA-BsAb bispecific control antibody (TA1-Fab anti-CD3 x CEA VHH) (bispecific antibody, human IgG4 S228P, kappa, F234A L235A)
heavy: EVKLLESGGGLVQPKGSLKLSCAASGFTFNTYAMNWVRQAPGKGLEWVARIRSKYNNYATYYADSVKDRFTISRDDSQSILYLQMNNLKTEDTAMYYCVRHGNFGNSYVSWFAYWGQGTLVTVSSASTKGPSVFPLAPCSRSTSESTAALGCLVKDYFPEPVTVSWNSGALTSGVHTFPAVLQSSGLYSLSSVVTVPSSSLGTKTYTCNVDHKPSNTKVDKRVESKYGPPCPPCPAPEAAGGPSVFLFPPKPKDTLMISRTPEVTCVVVDVSQEDPEVQFNWYVDGVEVHNAKTKPREEQFNSTYRVVSVLTVLHQDWLNGKEYKCKVSNKGLPSSIEKTISKAKGQPREPQVYTLPPCQEEMTKNQVSLWCLVKGFYPSDIAVEWESNGQPENNYKTTPPVLDSDGSFFLYSRLTVDKSRWQEGNVFSCSVMHEALHNHYTQKSLSLSL
chain: EVQLVESGGGFVQAGESLTLSCTSSTLTFTPYRMAWYRQAPGKQRDLVADISSGDGRTTNYADFAKGRFTISRDNIKNTVFLRMTNLKPEDTAVYYCNTFVSFVGIARSWGQGTQVTVSSESKYGPPCPPCPAPEAAGGPSVFLFPPKPKDTLMISRTPEVTCVVVDVSQEDPEVQFNWYVDGVEVHNAKTKPREEQFNSTYRVVSVLTVLHQDWLNGKEYKCKVSNKGLPSSIEKTISKAKGQPREPQVCTLPPSQEEMTKNQVSLSCAVKGFYPSDIAVEWESNGQPENNYKTTPPVLDSDGSFFLVSRLTVDKSRWQEGNVFSCSVMHEALHNRFTQKSLSLSL
light: QAVVTQESALTTSPGETVTLTCRSSTGAVTTSNYANWVQEKPDHLFTGLIGGTNKRAPGVPARFSGSLIGDKAALTITGAQTEDEAIYFCALWYSNLWVFGGGTKVEIKRTVAAPSVFIFPPSDEQLKSGTASVVCLLNNFYPREAKVQWKVDNALQSGNSQESVTEQDSKDSTYSLSSTLTLSKADYEKHKVYACEVTHQGLSSPVTKSFNRGEC
B2 had a BLI-Response (self-interaction) in assay [2] of 0.103 nm.

B3: CEA-CAM6-BsAb bispecific control antibody (TA1-Fab anti-CD3 x CEA-CAM6 VHH) (bispecific antibody, human IgG4 S228P, kappa, F234A L235A)
heavy: EVKLLESGGGLVQPKGSLKLSCAASGFTFNTYAMNWVRQAPGKGLEWVARIRSKYNNYATYYADSVKDRFTISRDDSQSILYLQMNNLKTEDTAMYYCVRHGNFGNSYVSWFAYWGQGTLVTVSSASTKGPSVFPLAPCSRSTSESTAALGCLVKDYFPEPVTVSWNSGALTSGVHTFPAVLQSSGLYSLSSVVTVPSSSLGTKTYTCNVDHKPSNTKVDKRVESKYGPPCPPCPAPEAAGGPSVFLFPPKPKDTLMISRTPEVTCVVVDVSQEDPEVQFNWYVDGVEVHNAKTKPREEQFNSTYRVVSVLTVLHQDWLNGKEYKCKVSNKGLPSSIEKTISKAKGQPREPQVYTLPPCQEEMTKNQVSLWCLVKGFYPSDIAVEWESNGQPENNYKTTPPVLDSDGSFFLYSRLTVDKSRWQEGNVFSCSVMHEALHNHYTQKSLSLSL
chain: QVKLEESGGGLVQAGGSLRLSCRTSGRTNSVYTMGWFRQAPGKEREFVAQIMWGAGTNTHYADSVKGRFTISRDSAESTVYLQMNSLKPEDTAVYYCAANRGIPIAGRQYDYWGQGTQVTVSSESKYGPPCPPCPAPEAAGGPSVFLFPPKPKDTLMISRTPEVTCVVVDVSQEDPEVQFNWYVDGVEVHNAKTKPREEQFNSTYRVVSVLTVLHQDWLNGKEYKCKVSNKGLPSSIEKTISKAKGQPREPQVCTLPPSQEEMTKNQVSLSCAVKGFYPSDIAVEWESNGQPENNYKTTPPVLDSDGSFFLVSRLTVDKSRWQEGNVFSCSVMHEALHNRFTQKSLSLSL
light: QAVVTQESALTTSPGETVTLTCRSSTGAVTTSNYANWVQEKPDHLFTGLIGGTNKRAPGVPARFSGSLIGDKAALTITGAQTEDEAIYFCALWYSNLWVFGGGTKVEIKRTVAAPSVFIFPPSDEQLKSGTASVVCLLNNFYPREAKVQWKVDNALQSGNSQESVTEQDSKDSTYSLSSTLTLSKADYEKHKVYACEVTHQGLSSPVTKSFNRGEC
In the case of B3, the BLI-Response (self-interaction) in assay [3] was found to be 0.045 nm.

B4: EGFR-BsAb bispecific control antibody (TA1-Fab anti-CD3 x EGFR VHH) (bispecific antibody, human IgG4 S228P, kappa, F234A L235A)
heavy: EVKLLESGGGLVQPKGSLKLSCAASGFTFNTYAMNWVRQAPGKGLEWVARIRSKYNNYATYYADSVKDRFTISRDDSQSILYLQMNNLKTEDTAMYYCVRHGNFGNSYVSWFAYWGQGTLVTVSSASTKGPSVFPLAPCSRSTSESTAALGCLVKDYFPEPVTVSWNSGALTSGVHTFPAVLQSSGLYSLSSVVTVPSSSLGTKTYTCNVDHKPSNTKVDKRVESKYGPPCPPCPAPEAAGGPSVFLFPPKPKDTLMISRTPEVTCVVVDVSQEDPEVQFNWYVDGVEVHNAKTKPREEQFNSTYRVVSVLTVLHQDWLNGKEYKCKVSNKGLPSSIEKTISKAKGQPREPQVYTLPPCQEEMTKNQVSLWCLVKGFYPSDIAVEWESNGQPENNYKTTPPVLDSDGSFFLYSRLTVDKSRWQEGNVFSCSVMHEALHNHYTQKSLSLSL
chain: QVQLQESGGGSVQAGGSLKLSCAASGRGFSRYAMGWFRQAPGQDREFVATISWTNSTDYADSVKGRFAISRDNAKNTAYLQMNSLKPEDTAVYYCAADKWASSTRSIDYDYWGQGIQVTVSSESKYGPPCPPCPAPEAAGGPSVFLFPPKPKDTLMISRTPEVTCVVVDVSQEDPEVQFNWYVDGVEVHNAKTKPREEQFNSTYRVVSVLTVLHQDWLNGKEYKCKVSNKGLPSSIEKTISKAKGQPREPQVCTLPPSQEEMTKNQVSLSCAVKGFYPSDIAVEWESNGQPENNYKTTPPVLDSDGSFFLVSRLTVDKSRWQEGNVFSCSVMHEALHNRFTQKSLSLSL
light: QAVVTQESALTTSPGETVTLTCRSSTGAVTTSNYANWVQEKPDHLFTGLIGGTNKRAPGVPARFSGSLIGDKAALTITGAQTEDEAIYFCALWYSNLWVFGGGTKVEIKRTVAAPSVFIFPPSDEQLKSGTASVVCLLNNFYPREAKVQWKVDNALQSGNSQESVTEQDSKDSTYSLSSTLTLSKADYEKHKVYACEVTHQGLSSPVTKSFNRGEC
In assay [4], B4 had a BLI-Response (self-interaction) of 0.037 nm.

B5: HER2-BsAb bispecific control antibody (TA1-Fab anti-CD3 x HER2 VHH) (bispecific antibody, human IgG4 S228P, kappa, F234A L235A)
heavy: EVKLLESGGGLVQPKGSLKLSCAASGFTFNTYAMNWVRQAPGKGLEWVARIRSKYNNYATYYADSVKDRFTISRDDSQSILYLQMNNLKTEDTAMYYCVRHGNFGNSYVSWFAYWGQGTLVTVSSASTKGPSVFPLAPCSRSTSESTAALGCLVKDYFPEPVTVSWNSGALTSGVHTFPAVLQSSGLYSLSSVVTVPSSSLGTKTYTCNVDHKPSNTKVDKRVESKYGPPCPPCPAPEAAGGPSVFLFPPKPKDTLMISRTPEVTCVVVDVSQEDPEVQFNWYVDGVEVHNAKTKPREEQFNSTYRVVSVLTVLHQDWLNGKEYKCKVSNKGLPSSIEKTISKAKGQPREPQVYTLPPCQEEMTKNQVSLWCLVKGFYPSDIAVEWESNGQPENNYKTTPPVLDSDGSFFLYSRLTVDKSRWQEGNVFSCSVMHEALHNHYTQKSLSLSL
chain: QVQLVQSGGGLVQAGGSLRLSCAASGRTFSSYAMAWFRQAPGKEREFVAAISWSGANIYVADSVKGRFTISRDNAKDTVYLQMNSLKPEDTAVYYCAVKLGFAPVEERQYDYWGQGTQVTVSSESKYGPPCPPCPAPEAAGGPSVFLFPPKPKDTLMISRTPEVTCVVVDVSQEDPEVQFNWYVDGVEVHNAKTKPREEQFNSTYRVVSVLTVLHQDWLNGKEYKCKVSNKGLPSSIEKTISKAKGQPREPQVCTLPPSQEEMTKNQVSLSCAVKGFYPSDIAVEWESNGQPENNYKTTPPVLDSDGSFFLVSRLTVDKSRWQEGNVFSCSVMHEALHNRFTQKSLSLSL
light: QAVVTQESALTTSPGETVTLTCRSSTGAVTTSNYANWVQEKPDHLFTGLIGGTNKRAPGVPARFSGSLIGDKAALTITGAQTEDEAIYFCALWYSNLWVFGGGTKVEIKRTVAAPSVFIFPPSDEQLKSGTASVVCLLNNFYPREAKVQWKVDNALQSGNSQESVTEQDSKDSTYSLSSTLTLSKADYEKHKVYACEVTHQGLSSPVTKSFNRGEC
B5 returned a BLI-Response (self-interaction) in assay [5] of 0.066 nm.
